Experiment [1] relates to HSV-1 strains F, G, and MP. Briefly: Infection of nectin-1 CHO Igβ cells by clinical HSV-1 strains, virus pre-incubated (Example 4). Type of experiment: cell-based, herpes simplex virus type-1. The settings on record: MP at 25 pfu/cell pre-incubated 90 min. The method, then: In this experiment different clinical strains of HSV-1 (F, G, and MP strains of HSV-1 [37] at 25 pfu/cell) were either pre-incubated with 1×PBS (control) or with CN at the concentrations indicated in FIG. 8, panel A for 90 min at room temperature. After 90 min of incubation the two pools of viruses were incubated with Nectin-1 receptor expressing CHO Igβ cells that express β-galactosidase upon viral entry as described. The viral infection blocking was measured by ONPG assay (FIG. 8, panel A). Similar experiment was conducted using Lac Z encoded HSV-2 (333 gJ-reporter virus). HSV-2 is a genital herpes virus. […] Each value shown is the mean of three or more determinations (±SD).

Experiment [2] deals with HSV-1 glycoproteins (gB, gD, gH-gL) mediated cell-to-cell fusion. As to the kind of experiment: Virus-free HSV-1 glycoprotein-mediated cell-to-cell fusion assay (Example 12). Type of experiment: cell-based, human. The protocol: FIG. 15A-B show the inhibition of HSV-1 glycoprotein-induced cell-to-cell fusion by CN and proposed model for CN-based anti-HSV-1 activity during cell entry. (A) In this experiment the naturally susceptible target human corneal fibroblasts (CF) cells expressing gD-receptors and luciferase gene were pre-incubated with 1 μM contortrostatin (CN) and mixed in 1:1 ratio with the effector Chinese hamster ovary (CHO-K1) cells expressing herpes simplex virus type-1 (HSV-1) glycoproteins (gB, gD, gH-gL) along with T7 plasmid (white bar indicated as treated [Tr]). In parallel, CN-untreated CF cells were similarly mixed with effector cells as positive control (+; black bar). The target CF cells co-cultured with effector cells devoid of HSV-1 glycoproteins were considered as negative control (−; grey bar). Membrane fusion as a means of viral spread was detected by monitoring luciferase activity. Relative luciferase units (RLUs) were determined using a Sirius luminometer (Berthoid Detection Systems, Titertek Instruments, Inc., Huntsville, Ala., USA). Error bars represent SD. (B) A cartoon illustrates the CN-mediated HSV-1 inhibition that might affect three major steps (a-c) that are involved during HSV-1 entry. (a) CN (presented by hatching) binding to host cell surface integrin (presented by α and β subunits) may affect HSV -1 glycoprotein H (gH) binding to integrins. […]

The subject of another experiment is HSV-1 (804) strain. Briefly: HSV-1 plaque assay in HeLa cells (Example 11). It is filed as cell-based, herpes simplex virus type-1. The settings on record: 10 μM, 0.01 PFU/cell, 24 h post-infection. The protocol: (A) In this experiment nectin-1 Chinese hamster ovary (CHO) Ig8 cells that express β-galactosidase upon viral entry were pre-treated with 10 μM contortrostatin (CN; indicated as treated [Tr]) or mock treated (indicated as untreated [Un]) with phosphate saline buffer for 90 min at room temperature followed by infection using clinical isolates of herpes simplex virus type-1 (HSV-1; F,G, and MP at 25 pfu/cell) for 6 h. The viral entry blocking was measured by o-nitro-phenyl-β-o-galactopyranoside (ONPG) assay as previously described. Error bars represent SD. (B) Confluent monolayers of HeLa cells were infected with HSV-1 (804) strain at 0.01 PFU/cell in presence (panel i) and absence (panel ii) of CN for 2 h at 37° C. Viral replication in HeLa cells were visualized 24 h post-infection for plaques. a=significant differences from corresponding mock-treated controls (P<0.05, t-test).
Viral plaque assay. Confluent layers of RPE cells in glass bottom dishes were infected with CMV Ad169 strain in the presence and absence of CN at 0.01 PFU per cell for 2 hrs. This was followed by extensive but gentle washing three times with DMEM media followed by feeding cells with DMEM media. The cells were then incubated at 37° C. for thee days. […] The number of plaques formed were then visualized and quantified as indicated. […] The cells were again washed 5× in PBS and the numbers of plaques were counted. […]

B1: contortrostatin (protein)
chain: DAPANPCCDAATCKLTTGSQCADGLCCDQCKFMKEGTVCRRARGDDLDDYCNGISAGCPRNPFHA
For B1, the “HSV-1 infection blocking activity across viral strains (ONPG assay)” value in experiment [1] is given as “not viral-strain specific”. For the same molecule, in experiment [2] (CN-treated target cells co-cultured with effector cells, data not shown), the polykaryocyte formation result is reported as “failed to form polykaryons”. For the same molecule, the “cell-to-cell fusion (luciferase activity, RLU)” value in experiment [2] (target human CF treated with 1 μM, effector CHO-K1 cells expressing gB, gD, gH-gL, 1:1) is on record as “impaired cell-to-cell fusion”. In the experiment with HSV-1 (804) strain, the HSV-1 plaque formation entry is “blocked the plaque formation”.

The record behind these values is patent publication US20130177528A1, “COMPOSITIONS AND METHODS FOR INHIBITING VIRAL INFECTION” (WESTERN UNIVERSITY OF HEALTH SCIENCES, priority 2011, published 2013).
